Test results: PMC4457860, “In Vitro Interaction of the Housekeeping SecA1 with the Accessory SecA2 Protein of Mycobacterium tuberculosis” (PLoS ONE, 2015)

Columns and labels:
[1] = biological target: Escherichia coli SecA labeled with Cy5 (E. coli) (UniProt P10408); experiment: MST; Monolith NT.115; unlabeled protein (1 nM to 5 μM) titrated into 25 nM Cy5-labeled protein, mixed in 300 mM KCl, then diluted into low salt buffer (25 mM HEPES-KOH pH 7.5, 30 mM KCl, 2 mM MgCl2, 50 mM arginine); Hill fit, apparent Kd; dimer to monomers
[2] = biological target: Mycobacterium tuberculosis SecA1 (unlabeled) (Mycobacterium tuberculosis strain H37Rv) (UniProt P9WGP5); experiment: SEC; Superdex 200 10/300 GL, 0.5 ml/min, 20 mM HEPES-KOH pH 7.5, 2 mM MgCl2, 50 mM arginine, low salt (30 mM KCl); protein 2-5 mg/ml; mass estimated with protein standards
[3] = biological target: the molecule itself; experiment: as above

Question: Which Kd [1] does the source give for “Escherichia coli SecA (unlabeled) (from UniProt P10408 1-901) (natural protein)” here?
Answer: The Kd was 31 nM.

Question: With “Mycobacterium tuberculosis SecA1 (unlabeled) (from UniProt P9WGP5 1-949) (natural protein)” as the molecule, how does the stoichiometry N [2] read?
Answer: The stoichiometry N was 2.

B1: Mycobacterium tuberculosis SecA2 (unlabeled) (natural protein)
chain: MVPKTTRAQPGRLSSRFWRLLGASTEKNRSRSLADVTASAEYDKEAADLSDEKLRKAAGLLNLDDLAESADIPQFLAIAREAAERRTGLRPFDVQLLGALRMLAGDVIEMATGEGKTLAGAIAAAGYALAGRHVHVVTINDYLARRDAEWMGPLLDAMGLTVGWITADSTPDERRTAYDRDVTYASVNEIGFDVLRDQLVTDVNDLVSPNPDVALIDEADSVLVDEALVPLVLAGTTHRETPRLEIIRLVAELVGDKDADEYFATDSDNRNVHLTEHGARKVEKALGGIDLYSEEHVGTTLTEVNVALHAHVLLQRDVHYIVRDDAVHLINASRGRIAQLQRWPDGLQAAVEAKEGIETTETGEVLDTITVQALINRYATVCGMTGTALAAGEQLRQFYQLGVSPIPPNKPNIREDEADRVYITTAAKNDGIVEHITEVHQRGQPVLVGTRDVAESEELHERLVRRGVPAVVLNAKNDAEEARVIAEAGKYGAVTVSTQMAGRGTDIRLGGSDEADHDRVAELGGLHVVGTGRHHTERLDNQLRGRAGRQGDPGSSVFFSSWEDDVVAANLDHNKLPMATDENGRIVSPRTGSLLDHAQRVAEGRLLDVHANTWRYNQLIAQQRAIIVERRNTLLRTVTAREELAELAPKRYEELSDKVSEERLETICRQIMLYHLDRGWADHLAYLADIRESIHLRALGRQNPLDEFHRMAVDAFASLAADAIEAAQQTFETANVLDHEPGLDLSKLARPTSTWTYMVNDNPLSDDTLSALSLPGVFR
notes: No tag; molecular mass 85 kDa on SDS-PAGE; also called PIP152
Question: How did the “stoichiometry N” value [3] turn out when B1 was run?
Answer: The value was 2.
